{"source": "paper PMC4522956", "about": "“Unsaturated fatty acids as high-affinity ligands of the C-terminal Per-ARNT-Sim domain from the Hypoxia-inducible factor 3α” (Scientific Reports, 2015)", "binders": {"B1": {"name": "HIF-1α PASb (domain or fragment)", "chain": "not shown", "notes": "Hypoxia-inducible factor 1α, PASb domain, Asp238-His348 of UniProt Q16665; Cloned NdeI/XhoI into pET28a; residues of the vector probably remain at the N-terminus after thrombin cleavage (surmise); also called PASb-1α; source: E. coli Rosetta-2, purified (TALON, MonoQ, Superdex 75); not shown: 6xHis, N-terminal, cleaved"}}, "target": "T1, HIF-1β PASb labeled with FITC (human (cDNA library from the breast …, UniProt P27540 349-467, FITC (fluorescein isothiocyanate) label, sites not stated))", "T1 construct": "HIF-1β (ARNT), PASb domain, Pro349-Ser467 of UniProt P27540; Same construct as m2, labeled with a 20-fold molar excess of FITC in borate buffer pH 8.5; also called PASb-1β labeled with FITC; PASb-1β; source: E. coli Rosetta-2, purified (TALON, MonoQ, Superdex 75), then labeled with FITC; not shown: 6xHis, N-terminal, cleaved", "T1 sequence (P27540 349-467)": "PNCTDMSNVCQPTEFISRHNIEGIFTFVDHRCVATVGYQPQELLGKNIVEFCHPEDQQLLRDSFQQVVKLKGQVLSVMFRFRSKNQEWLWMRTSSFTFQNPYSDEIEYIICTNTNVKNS", "test": "fluorescence polarisation; unlabeled PASb-1α or PASb-3α serially diluted 1:2 from about 1 mM, mixed with FITC-labeled PASb-1β at 20 nM final; 30 mM Hepes pH 7.5, 150 mM NaCl, 0.5 mM TCEP; room temperature; triplicate", "conditions": "both partners purified", "data": [{"binder": "B1", "values": [{"measurement": "binding result", "result": "binds"}]}]}
